According to patent publication US6933284:

Target: LDL receptor on normal human fibroblasts (human) (UniProt P01130)
Test: competition with 125I-labeled human plasma LDL (2 µg/ml) for LDL receptors on normal human fibroblasts, 3 h at 4 °C

Substance | ED50
K3363E LDL (recombinant LDL, human apo-B100 with glutamic acid for lysine at residue 3363), P04114 28-4563 | 2.4 µg/mL
R3500Q LDL (recombinant LDL, human apo-B100 with glutamine for arginine at residue 3500), P04114 28-4563 | > 20 µg/mL
RK3359-3369SA LDL (recombinant LDL, human apo-B100 with the arginines of Site B changed to serines and the lysines to alanines), P04114 28-4563 | > 20 µg/mL
recombinant control LDL (human apo-B100 with leucine in place of glutamine at position 2153), P04114 28-4563 | 2.3 µg/mL
